*1 amine or outer side, *2 acyl side, *3 side chain or, on linkers, in order; H or OH if unused. Primed or numbered codes have the meaning given here. Where no end group is shown, it is not given here. The star is where a group is joined. KMUS = cross-linking reagent joining N-terminal amine to thiol PEG, O=C1CC([*:3])C(=O)N1CCCCCCCCCCC(=O)[*:2]; GMBS = cross-linking reagent joining N-terminal amine to thiol PEG, O=C1CC([*:3])C(=O)N1CCCC(=O)[*:2]; SMCC = cross-linking reagent joining N-terminal amine to thiol PEG; Hexanoyl(6-succinimido-3yl) = O=C1CC([*:1])C(=O)N1CCCCCC(=O)[*:2]; AMBz = omega-aminocarboxylic acid linker (structure only drawn); AU″ = omega-aminocarboxylic acid linker (structure only drawn); ACP = omega-aminocarboxylic acid linker; Traut's reagent = N=C(CCCS)*; AB = not defined here; AD = not defined here; AP = not defined here; AU = not defined here
T1: human FM3 (NMUR1) (human)
T1 chain: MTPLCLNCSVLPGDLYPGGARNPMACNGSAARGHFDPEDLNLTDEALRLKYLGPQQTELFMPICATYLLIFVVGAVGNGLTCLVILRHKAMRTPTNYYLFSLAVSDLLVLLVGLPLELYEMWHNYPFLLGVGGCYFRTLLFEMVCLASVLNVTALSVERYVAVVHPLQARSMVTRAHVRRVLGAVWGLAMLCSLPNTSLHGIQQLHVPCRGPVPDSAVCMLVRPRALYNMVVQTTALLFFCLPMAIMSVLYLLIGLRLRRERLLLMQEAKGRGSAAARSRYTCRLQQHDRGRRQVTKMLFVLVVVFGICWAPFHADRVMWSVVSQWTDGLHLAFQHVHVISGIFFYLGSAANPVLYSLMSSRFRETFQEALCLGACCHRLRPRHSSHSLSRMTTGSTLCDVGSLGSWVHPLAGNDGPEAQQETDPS

B1: 125I-NMU8 (radiation labeled ligand) (peptide)
peptide: YFLFRPRN-NH2
modifications: also: 125I label (position not given here)
B2: PEG30k(NHAc)-Cys-NMU-8 (peptide)
peptide: C(PEG 30 kDa)FFLFRPRN-NH2
B3: PEG30k(GMBS)-NMU-8 (peptide)
peptide: {PEG 30 kDa-GMBS}-YFLFRPRN-NH2
B4: PEG30k(NH-ACP)-NMU-8 (peptide)
peptide: {PEG 30 kDa-ACP}-YFLFRPRN-NH2
modifications: also: PEG-aldehyde bound by reductive amination (NH linkage)
B5: (PEG20k)2(AU)-NMU-8 (peptide)
peptide: {(PEG20k)2-AU}-YFLFRPRN-NH2
modifications: reading uncertain; also: printed as (PEG20k)2(AU)-NMU-8
B6: PEG30k(SMCC)-NMU-8 (peptide)
peptide: {PEG 30 kDa-SMCC}-YFLFRPRN-NH2
B7: (PEG20k)2(AD)-NMU-8 (peptide)
peptide: {(PEG20k)2-AD}-YFLFRPRN-NH2
modifications: reading uncertain; also: printed as (PEG20k)2(AD)-NMU-8
B8: PEG30k(Traut)-NMU-8 (peptide)
peptide: {PEG‑maleimide 30 kDa-Traut's reagent}-YFLFRPRN-NH2
B9: PEG30k(AU)-NMU-8 (peptide)
peptide: {PEG 30 kDa-AU″}-YFLFRPRN-NH2
B10: PEG30k(KMUS)-NMU-8 (peptide)
peptide: {PEG 30 kDa-KMUS}-YFLFRPRN-NH2
B11: PEG30k(NH-AB)-NMU-8 (peptide)
peptide: {PEG 30 kDa-AB}-YFLFRPRN-NH2
modifications: reading uncertain; also: PEG attached by reductive amination (NH link) to linker, printed as Try-Phe-Leu-Phe-Arg-Pro-Arg-Asn-NH2
B12: PEG30k-NH-NMU-8 (peptide)
peptide: {PEG 30 kDa}-YFLFRPRN-NH2
B13: (PEG20k)2(ACP)-NMU-8 (peptide)
peptide: {(PEG20k)2-ACP}-YFLFRPRN-NH2
B14: (PEG20k)2(AMBz)-NMU-8 (peptide)
peptide: {(PEG20k)2-AMBz}-YFLFRPRN-NH2
B15: NMU-8 (peptide)
peptide: YFLFRPRN-NH2
B16: PEG30k-NMU-8 (peptide)
peptide: {PEG 30 kDa}-YFLFRPRN-NH2
B17: (PEG20k)2-NMU-8 (peptide)
peptide: {(PEG20k)2}-YFLFRPRN-NH2
B18: PEG30k(NH-AD)-NMU-8 (peptide)
peptide: {PEG 30 kDa-AD}-YFLFRPRN-NH2
modifications: reading uncertain; also: PEG-aldehyde bound by reductive amination (NH linkage), printed as PEG30k(NH-AD)-NMU-8
B19: PEG30k(EMCS)-NMU-8 (peptide)
peptide: {PEG 30 kDa-Hexanoyl(6-succinimido-3yl)}-YFLFRPRN-NH2
B20: PEG30k(NH-AP)-NMU-8 (peptide)
peptide: {PEG 30 kDa-AP}-YFLFRPRN-NH2
modifications: reading uncertain; also: printed as PEG30k(NH-AP)-NMU-8
B21: PEG30k(AMBz)-NMU-8 (peptide)
peptide: {PEG 30 kDa-AMBz}-YFLFRPRN-NH2
B22: PEG30k-Cys-NMU-8 (peptide)
peptide: C(PEG 30 kDa)FFLFRPRN-NH2
B23: PEG30k(AD)-NMU-8 (peptide)
peptide: {PEG 30 kDa-AD}-YFLFRPRN-NH2
modifications: reading uncertain; also: printed as PEG30k(AD)-NMU-8
B24: PEG30k(NH-AU)-NMU-8 (peptide)
peptide: {PEG 30 kDa-AU″}-YFLFRPRN-NH2
B25: PEG30k(NH-AMBz)-NMU-8 (peptide)
peptide: {PEG 30 kDa-AMBz}-YFLFRPRN-NH2
modifications: also: PEG attached by reductive amination (NH link) to linker
B26: PEG30k(ACP)-NMU-8 (peptide)
peptide: {PEG30k-ACP}-YFLFRPRN-NH2
B27: PEG30k(AP)-NMU-8 (peptide)
peptide: {PEG 30 kDa-AP}-YFLFRPRN-NH2
modifications: reading uncertain; also: printed as PEG30k(AP)-NMU-8
B28: (PEG20k)2(AB)-NMU-8 (peptide)
peptide: {(PEG20k)2-AB}-YFLFRPRN-NH2
modifications: reading uncertain; also: printed as (PEG20k)2(AB)-NMU-8
B29: (PEG20k)2(AP)-NMU-8 (peptide)
peptide: {(PEG20k)2-AP}-YFLFRPRN-NH2
modifications: reading uncertain; also: printed as (PEG20k)2(AP)-NMU-8
B30: PEG30k(AB)-NMU-8 (peptide)
peptide: {PEG 30 kDa-AB}-YFLFRPRN-NH2
modifications: reading uncertain; also: printed as PEG30k(AB)-NMU-8

Target: T1, human FM3 (NMUR1)
Experiment: Scatchard analysis, radioligand filter binding, human FM3/CHO membrane fraction
Description: (§1) The protein concentrations in the FM3 and TGR1 membrane fractions were 12 and 22 μg/ml, respectively.

| Kd | Binder |
| --- | --- |
| 164000 nM | B1 |

Target: T1, human FM3 (NMUR1)
Experiment: competition with 125I-NMU8, human FM3/CHO membrane fraction, filter binding
Description: as §1
(§2) Namely, dilution strings of NMU derivatives and PEG conjugates were provided and diluted membrane fraction solutions (200 μl) were added. The mixture was thoroughly blended with a Vortex and the labeled ligand 2 μl (final concentration […]) was added to carry out the reaction at 25° C. for 60 min. According to the aforementioned operations, the amount of binding of the labeled ligand remaining in the filter was measured and the IC50 values were calculated using graph pad PRISM (FIG. 4A (FM3 receptor binding), FIG. 4B (TGR1 receptor binding), FIG. 4C (FM3 receptor binding), FIG. 4D (TGR1 receptor binding) Table 9).

| IC50 | Binder |
| --- | --- |
| 18 nM | B2 |
| 7.5 nM | B3 |
| 7.3 nM | B4 |
| 330 nM | B5 |
| 4.5 nM | B6 |
| 380 nM | B7 |
| 6.4 nM | B8 |
| 60 nM | B9 |
| 51 nM | B10 |
| 2.4 nM | B11 |
| 11 nM | B12 |
| 280 nM | B13 |
| 210 nM | B14 |
| 0.19 nM | B15 |
| 5.7 nM | B16 |
| 270 nM | B17 |
| 7 nM | B18 |
| 11 nM | B19 |
| 6.3 nM | B20 |
| 75 nM | B21 |
| 2.3 nM | B22 |
| 130 nM | B23 |
| 18 nM | B24 |
| 6.7 nM | B25 |

target: human TGR1 (NMUR2) (human); experiment: Scatchard analysis, radioligand filter binding, human TGR1/CHO membrane fraction
Sequence (chain, as listed by the source): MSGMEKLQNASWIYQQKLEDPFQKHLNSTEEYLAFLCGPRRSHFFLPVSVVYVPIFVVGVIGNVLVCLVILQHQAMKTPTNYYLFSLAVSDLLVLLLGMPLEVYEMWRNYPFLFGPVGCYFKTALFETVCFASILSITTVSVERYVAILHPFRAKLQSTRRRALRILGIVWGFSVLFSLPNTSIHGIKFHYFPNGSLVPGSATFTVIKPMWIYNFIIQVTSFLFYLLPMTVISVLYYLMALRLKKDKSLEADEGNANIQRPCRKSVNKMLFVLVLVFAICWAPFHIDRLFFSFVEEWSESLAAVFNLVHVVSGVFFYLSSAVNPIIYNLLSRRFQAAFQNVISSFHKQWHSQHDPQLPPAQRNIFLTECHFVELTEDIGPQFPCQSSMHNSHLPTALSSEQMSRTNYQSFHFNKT
Description: as §1

| Kd | Binder |
| --- | --- |
| 135000 nM | B1 |

target: human TGR1 (NMUR2) (human); experiment: competition with 125I-NMU8, human TGR1/CHO membrane fraction, filter binding
Description: as §1, §2

| IC50 | Binder |
| --- | --- |
| 9.1 nM | B2 |
| 4.1 nM | B3 |
| 7.9 nM | B4 |
| 560 nM | B5 |
| 4.3 nM | B6 |
| 730 nM | B7 |
| 54 nM | B9 |
| 26 nM | B10 |
| 2.5 nM | B11 |
| 11 nM | B12 |
| 420 nM | B13 |
| 320 nM | B14 |
| 0.089 nM | B15 |
| 66 nM | B16 |
| 210 nM | B17 |
| 32 nM | B18 |
| 11 nM | B19 |
| 6.9 nM | B20 |
| 110 nM | B21 |
| 1.9 nM | B22 |
| 120 nM | B23 |
| 22 nM | B24 |
| 9.4 nM | B25 |

Target: T1, human FM3 (NMUR1)
Experiment: competition with 125I-NMU8, membrane fraction, filter binding; only one value in the row, read as the FM3 column
Description: as §1, §2

| IC50 | Binder |
| --- | --- |
| 59 nM | B26 |
| 64 nM | B27 |
| 380 nM | B28 |
| 230 nM | B29 |
| 82 nM | B30 |
